Laboratory results from the supplement of paper PMC10126150.
± gives the standard deviation of the averaged measurements.

Test system: ATP
Assay: switch fluorescence ratio, 500 uM ATP over buffer (Cy3 cluster intensity, sum of 5 cycles each) (fold (ratio)); higher = stronger signal-on switching upon ATP binding; sequences stand for … in TCGTCGGCAGCGTCAGATGTGTATAAGAGACAGTTTTTTTTTTTTTTTTTTTTTTTTT…TC
Conditions: aptamer strand: ATP DNA aptamer (quencher-CACCTGGGGGAGTATTGCGGAGGAAGG + anchor), 100 nM annealed; ATP concentration: 500 uM
Summary of the method: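 Five buffer/ATP imaging cycles were run on Cy3-labelled switching-strand clusters on a modified Illumina MiSeq flow-cell, with NaOH stripping and re-annealing between cycles. In each cycle, clusters annealed to 100 nM quencher-labelled ATP aptamer were imaged in selection buffer, then after 15 min with 500 uM ATP at 22 °C. Per cluster, the fluorescence ratio is summed target-cycle over summed buffer-cycle Cy3 intensity, averaged per switch-domain sequence. Only clusters within 100-1000 RFU were kept.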
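Further: ATP exposure 15 min at 22 °C before imaging.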

Sequence	switch fluorescence ratio
TAAATTAATC	1.01 ± 0.018
ATCTGGAGTT	1.01 ± 0.018
AGGCCCACAT	1.01 ± 0.046
ACGATGTTGG	0.994 ± 0.023
ACTGGGGAGC	0.985 ± 0.0078
AAAAGGGGGG	1.02 ± 0.044
AAAGCTCACC	1.12 ± 0.026
GGGAAAACGC	1.02 ± 0.015
GGGTCCATGG	0.985 ± 0.024
TTCGGGAGTG	0.985 ± 0.02
GCGAGTAGG	1.06 ± 0.056
GGAGAAGGGA	0.973 ± 0.062
GGAACGTATT	1.0119 ± 8.1e-05
GTGGGGGACA	0.993 ± 0.04
GGGGACGGGT	1.01 ± 0.14
TAATTCGGAT	2.07 ± 1.8
TAGGTTGAAC	0.974 ± 0.05
TGCTATGAGG	1.01 ± 0.043
TTTTTGTGTA	0.969 ± 0.012
GGTTGGTTCT	1.02 ± 0.078
ATTATAGGGG	0.986 ± 0.0017
AGGCGAAACG	0.97 ± 0.065
TAGTGGGCGG	1.07 ± 0.046
GGGTTATCGG	0.967 ± 0.041
ATTATTAATT	0.973 ± 0.022

Sequence	switch fluorescence ratio
TTTGTGTAAT	0.989 ± 0.038
TCAAAATATT	1.006 ± 0.0065
GAGAGGGTAT	0.966 ± 0.012
TAGATTGAAA	0.986 ± 0.028
AGCCCGGGCA	0.956 ± 0.015
TAACTTGCTC	1.05 ± 0.054
ACCCTGTTGG	1.01 ± 0.029
TTTTGGCTTG	0.9884 ± 0.0012
GGTAGCAGCG	1.05 ± 0.059
TGTAAGTAGG	1.04 ± 0.025
AAAGGTGATA	1.03 ± 0.037
GATGCTCCTT	1.05 ± 0.031
CCAAAATTGG	1.018 ± 0.0052
TCCGGGGGGC	1.15 ± 0.18
TGGGTGAAGC	0.991 ± 0.059
GGGGGGGGCG	1.01 ± 0.052
TGATTTATG	1.01 ± 0.002
CGATTTAGCT	0.988 ± 0.037
AAGATGGCAG	0.986 ± 0.029
CTAGTCACGT	1.003 ± 0.0031
CGGTATTTAA	1.02 ± 0.046
AATTACCATC	1.01 ± 0.017
GTTAAAAATG	1.04 ± 0.051
GGCTGGCAGC	1 ± 0.016
TTAGAGCATT	1 ± 0.026

Sequence	switch fluorescence ratio
AACTAGCCGG	0.961 ± 0.025
CCAACGGCCA	1.2 ± 0.049
TTCTCATTGG	0.9893 ± 0.0039
GGGGTAATAG	1.12 ± 0.14
GCCCGTTCGG	1.01 ± 0.028
GACGAGATAG	1.17 ± 0.076
CTGGTCACAG	1 ± 0.024
CCAAGCAGGG	1.66 ± 0.059
ATGGCCGGGA	0.999 ± 0.016
TTTTTGGTTG	1.01 ± 0.012
TTCGGTTGGA	0.984 ± 0.017
GCATGGGGGG	1.02 ± 0.042
ATTGTCAGTT	1.013 ± 0.0029
TTAGGATTCG	1.02 ± 0.039
ATGTGTAACC	1 ± 0.039
CTCTGCGGTT	1.891 ± 0.0039
TTTAATTAT	0.99 ± 0.034
TTTTGCACCG	1.02 ± 0.053
TACGTGCATT	1.0476 ± 0.00035
TGAGCGGCAA	1.2 ± 0.22
GGCGGTTTGA	0.969 ± 0.014
CGCGTGATTT	1.06 ± 0.058
GGGGGCGTTC	1.015 ± 0.005
CTGCTCCGAT	1.21 ± 0.034
CAAGGGGGTG	1.03 ± 0.03

Sequence	switch fluorescence ratio
AAAGTGGTCG	1.1 ± 0.039
GCAGTTGGGT	0.986 ± 0.028
TTTAATGCG	1.01 ± 0.025
TTTTTATTTC	1 ± 0.019
TTGGAATGTT	0.952 ± 0.043
AAGAGGGTTC	1.02 ± 0.081
TTGTTTAAAA	1.01 ± 0.049
TCGGGGCCAT	1.02 ± 0.062
ATTCAGGTTG	1.02 ± 0.016
CACAAGGCGG	1.03 ± 0.041
GGACATATTT	1.03 ± 0.042
GGGGGCGCTG	1.02 ± 0.028
TGGGGGGGCG	0.998 ± 0.04
CCACTCCGGG	1.192 ± 0.0055
CCATAGTTGC	1.57 ± 0.086
AGGGGCATAG	1.007 ± 0.003
GTGGGACCTT	1.06 ± 0.069
ATCAGGCGTA	0.975 ± 0.038
TTCTTTACGG	0.986 ± 0.026
CCCCGGGTAA	1.33 ± 0.012
TAACGGAGGG	0.993 ± 0.04
ATATCTTATG	0.964 ± 0.023
GTATTGGGGG	1.01 ± 0.043
GGGGGGTGAG	0.974 ± 0.037
TTGTGAGTCT	1.01 ± 0.011

Sequence	switch fluorescence ratio
AAAGGGGGAT	1 ± 0.023
TTATAGAGGT	1.01 ± 0.011
TATGTTATTA	0.984 ± 0.039
GCCGACAAGC	1.05 ± 0.083
ACGAGTTCGC	1.04 ± 0.025
CGAGTCCAGG	6.48 ± 0.097
CTTGATACAG	1.037 ± 0.0026
GTTTCGTGAG	0.994 ± 0.054
GATCTTTTTT	1.02 ± 0.023
GGTTGGAGTG	0.963 ± 0.017
AATAACCAGT	1.02 ± 0.016
ATTTATTCTA	0.976 ± 0.036
ACGAAGATTA	1.03 ± 0.014
TTTCGGATTT	0.983 ± 0.012
ACGGTTATTT	1.072 ± 0.01
GGGAGGGTAT	1.01 ± 0.036
TGGAGAGGTG	1.02 ± 0.083
TTAGAAGTGG	0.988 ± 0.025
TGGAATACG	1.35 ± 0.036
TTTTTAACGG	1.01 ± 0.024
ATAGACAGTG	1.02 ± 0.13
ATCAGTGGGG	0.991 ± 0.042
GAGTAATGCT	1.27 ± 0.017
TTTTGCTATT	1.03 ± 0.013
TGCGGGACT	2.28 ± 1.8

Sequence	switch fluorescence ratio
CAGGAGGGCT	0.993 ± 0.031
TTGTAAAATA	0.978 ± 0.058
TGTTTCCGGT	1.44 ± 0.59
GGAGTATTTT	1.12 ± 0.29
TGTGAACGGA	1.004 ± 0.01
TCATTAGGAA	1 ± 0.035
GTTTTCGGGC	0.987 ± 0.067
AAGCAAATCT	1.18 ± 0.04
ACGCCCTTTT	1.05 ± 0.052
GCGGTTTTTT	1.22 ± 0.35
ATCCTAAATT	1.02 ± 0.0024
TCAAAGAGGT	0.98204 ± 0.00058
GACTAGTATA	1.01 ± 0.04
CATTAGAGAC	1.03 ± 0.012
TTGCGTTTTG	0.991 ± 0.057
CTGTGGCTAT	1.01 ± 0.023
TATTTGTGTG	0.998 ± 0.029
ACTTTGACAT	1.072 ± 0.0092
GTGTGCGGTG	0.982 ± 0.015
TCAGATAAAT	1.27 ± 0.35
ACGAAGGGAG	1.02 ± 0.031
GGGTCTTTTT	1.02 ± 0.055
GGGGAAGGAT	1.05 ± 0.13
TGATTGTATC	0.981 ± 0.055
TATCAAATTG	1.02 ± 0.025

Sequence	switch fluorescence ratio
AATGGTGAAT	0.996 ± 0.03
TAGGGTATGG	0.9792 ± 0.0083
ATGAGCCAGT	1.003 ± 0.004
GGAGGGAACT	1.2 ± 0.34
GGATACTAGT	1.04 ± 0.069
CATAAGTTAT	1.02 ± 0.02
GATTATTCTG	0.966 ± 0.039
CTATACGGTA	1.128 ± 0.0097
TATGCTTATA	0.98 ± 0.014
TGGGGGGCTG	0.983 ± 0.048
CACTTAAGGC	1.05 ± 0.072
TAATAAGGCT	0.9935 ± 0.0076
GTTTTGACAC	1.02 ± 0.013
TGGGGTATAG	1.01 ± 0.018
ACAAGAGGTT	0.995 ± 0.018
CCCTAGGCTT	1.13 ± 0.018
TTTTAATTGT	1.08 ± 0.083
AAGGAGGGAG	0.992 ± 0.026
TTTTAGACGT	0.991 ± 0.022
AGGTGCTGTG	1.01 ± 0.051
GCGTATTTTT	1.01 ± 0.029
TGCCCTATTT	0.986 ± 0.025
CGGCGATCGC	1.04 ± 0.011
TTAAGCTTAT	1.012 ± 0.006
TAGTGTTGGT	0.975 ± 0.016

Sequence	switch fluorescence ratio
CCTGAGTTCG	1.39 ± 0.21
TTGGGGGTTT	1.02 ± 0.036
TAATTCGAG	1.04 ± 0.029
AAAAAAAGGG	1.01 ± 0.047
CTGGGGGTAG	1.01 ± 0.016
AACGTGGCGA	1.03 ± 0.047
GATTTAAGTT	0.9988 ± 0.0098
TTTTGGGATC	0.996 ± 0.016
GTTCTAAAAA	1.02 ± 0.042
TTATAAGAGG	0.979 ± 0.0047
TAAGGGGAAA	0.979 ± 0.026
TTCGTTTTGT	0.9975 ± 0.0097
AAGCGGACGG	0.9536 ± 0.0046
ATTAACTTTG	1.01 ± 0.05
CCAGGAACGA	0.986 ± 0.028
ATTGTTTAAG	1.01 ± 0.024
TTAGTTATTC	1.022 ± 0.0032
GGGACAAACC	1.02 ± 0.019
ACACCTCCAA	1.04 ± 0.027
TCGGGGAGTT	0.982 ± 0.021
GGGCAATCGG	1.75 ± 0.97
GCAAAAGGGC	1.02 ± 0.014
GGGTCAAATA	0.982 ± 0.011
ACGGTAGAAC	1.04 ± 0.021
TGTTAGGGG	1 ± 0.049
